Fewer inactive variants are shown than the library holds.
Assays:
biotinyl-Phe-oxazolone = experiment: self-aminoacylation, catalytic enhancement (BFO) (fold over background); higher = more active; k-Seq, kA / k0A0; sequences stand for … in GGGAAUGGAUCCACAUCUACGAAUUC…UUCACUGCAGACUUGACGAAGCUG
Procedure, shortened: (§1)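 Catalytic enhancement equals the median kA over the uncatalyzed rate, the latter read from the low-activity peak of a bimodal Gaussian fit. Values of kA came from fitting each sequence's fraction reacted to a pseudo-first-order model, with 1000 bootstraps. Reacted RNA was captured with streptavidin and quantified by triplicate qPCR and Illumina sequencing after 90 minutes at room temperature with 2–1250 μM biotinyl-aminoacyl-oxazolone and 0.43 μM mutagenized RNA pools bearing a 21-nt variable region.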

biotinyl-Ile-oxazolone = experiment: self-aminoacylation, catalytic enhancement (BIO) (fold over background); higher = more active; k-Seq, kA / k0A0; sequences stand for … in GGGAAUGGAUCCACAUCUACGAAUUC…UUCACUGCAGACUUGACGAAGCUG
Procedure, shortened: as §1

biotinyl-Met-oxazolone = experiment: self-aminoacylation, catalytic enhancement (BMO) (fold over background); higher = more active; k-Seq, kA / k0A0; sequences stand for … in GGGAAUGGAUCCACAUCUACGAAUUC…UUCACUGCAGACUUGACGAAGCUG
Procedure, shortened: as §1

biotinyl-Val-oxazolone = experiment: self-aminoacylation, catalytic enhancement (BVO) (fold over background); higher = more active; k-Seq, kA / k0A0; sequences stand for … in GGGAAUGGAUCCACAUCUACGAAUUC…UUCACUGCAGACUUGACGAAGCUG
Procedure, shortened: as §1

biotinyl-Leu-oxazolone = experiment: self-aminoacylation, catalytic enhancement (BLO) (fold over background); higher = more active; k-Seq, kA / k0A0; sequences stand for … in GGGAAUGGAUCCACAUCUACGAAUUC…UUCACUGCAGACUUGACGAAGCUG
Procedure, shortened: as §1

biotinyl-Trp-oxazolone = experiment: self-aminoacylation, catalytic enhancement (BWO) (fold over background); higher = more active; k-Seq, kA / k0A0; sequences stand for … in GGGAAUGGAUCCACAUCUACGAAUUC…UUCACUGCAGACUUGACGAAGCUG
Procedure, shortened: as §1

Sequence	self-aminoacylation (biotinyl-Phe-oxazolone)	self-aminoacylation (biotinyl-Ile-oxazolone)	self-aminoacylation (biotinyl-Met-oxazolone)	self-aminoacylation (biotinyl-Val-oxazolone)	self-aminoacylation (biotinyl-Leu-oxazolone)	self-aminoacylation (biotinyl-Trp-oxazolone)
AAGUUUGCGAAUAGUCACAAG [Fam3.1 aminoacylation ribozyme variant]	1.66	1.17	0.933	0.962	0.774	0.863
AAGUUUGCGAAUAGUCGCAAC [Fam3.1 aminoacylation ribozyme variant]	7.2	1.66	1.33	1.4	1.32	1.46
AAGUUUGCGAAUAGUCGCAGG [Fam3.1 aminoacylation ribozyme variant]	4.04	1.7	1.79	1.59	1.89	2.44
AAGUUUGCUAAAAGUCGCUAG [Fam3.1 aminoacylation ribozyme variant]	1.38	0.911	0.781	0.803	0.944	0.783
AAGUUUGCUAAAAGUCUCAAG [Fam3.1 aminoacylation ribozyme variant]	4.24	1.11	1.24	0.996	0.875	1.45
AAGUUUGCUAAACGUCGCAAG [Fam3.1 aminoacylation ribozyme variant]	0.887	0.739	0.608	0.542	0.537	0.603
AAGUUUGCUAACAAUCGCAAG [Fam3.1 aminoacylation ribozyme variant]	1.03	0.619	0.63	0.599	0.591	0.717
AAGUUUGCUAACAGUCGCAAA [Fam3.1 aminoacylation ribozyme variant]	2.28	1.43	1.06	0.995	1.23	1.58
AAGUUUGCUAACUGUCGCAAG [Fam3.1 aminoacylation ribozyme variant]	0.773	0.784	1.01	0.79	1	0.984
AAGUUUGCUAAGAGACGCAAG [Fam3.1 aminoacylation ribozyme variant]	1.28	0.661	0.544	0.76	0.967	0.74
AAGUUUGCUAAGAGUCGCAAG [Fam3.1 aminoacylation ribozyme variant]	3.23	0.748	0.755	0.741	0.661	1.39
AAGUUUGCUAAGAGUCGGAAG [Fam3.1 aminoacylation ribozyme variant]	1.35	0.879	0.956	0.923	0.64	1.4
AAGUUUGCUAAGAGUUGCAAG [Fam3.1 aminoacylation ribozyme variant]	0.74	0.797	0.665	0.757	0.86	0.97
AAGUUUGCUAAGAUUCGCAAG [Fam3.1 aminoacylation ribozyme variant]	1.13	0.986	0.647	0.867	0.86	1.04
AAGUUUGCUAAUAAUCGAAAG [Fam3.1 aminoacylation ribozyme variant]	0.807	1.02	0.793	0.764	0.95	0.78
AAGUUUGCUAAUAAUCGCAUG [Fam3.1 aminoacylation ribozyme variant]	1.21	0.866	1.05	0.926	0.932	1.15
AAGUUUGCUAAUAAUCGGAAG [Fam3.1 aminoacylation ribozyme variant]	0.788	0.961	0.973	0.923	0.877	0.66
AAGUUUGCUAAUACACGCAAG [Fam3.1 aminoacylation ribozyme variant]	1.19	0.665	0.7	0.627	0.564	0.66
AAGUUUGCUAAUACUCGCUAG [Fam3.1 aminoacylation ribozyme variant]	0.624	0.63	0.532	0.507	0.594	0.445
AAGUUUGCUAAUACUGGCAAG [Fam3.1 aminoacylation ribozyme variant]	0.739	0.642	0.481	0.571	0.696	0.458
AAGUUUGCUAAUAGACGCGAG [Fam3.1 aminoacylation ribozyme variant]	0.443	0.793	0.912	0.64	0.619	0.812

From the supplement of paper PMC9233669
